From publication PMC4353692, “Structure of the Vacuolar H^+-ATPase Rotary Motor Reveals New Mechanistic Insights” (Structure(London, England:1993), 2015)

T1: Manduca sexta V-ATPase subunit H (Manduca sexta (endogenous in midgut), UniProt Q9U5N0 1-475)
T1 construct: V-type proton ATPase subunit H, Manduca sexta; source: purified from M. sexta midgut, as part of the V-ATPase holoenzyme
T1 sequence (looked up): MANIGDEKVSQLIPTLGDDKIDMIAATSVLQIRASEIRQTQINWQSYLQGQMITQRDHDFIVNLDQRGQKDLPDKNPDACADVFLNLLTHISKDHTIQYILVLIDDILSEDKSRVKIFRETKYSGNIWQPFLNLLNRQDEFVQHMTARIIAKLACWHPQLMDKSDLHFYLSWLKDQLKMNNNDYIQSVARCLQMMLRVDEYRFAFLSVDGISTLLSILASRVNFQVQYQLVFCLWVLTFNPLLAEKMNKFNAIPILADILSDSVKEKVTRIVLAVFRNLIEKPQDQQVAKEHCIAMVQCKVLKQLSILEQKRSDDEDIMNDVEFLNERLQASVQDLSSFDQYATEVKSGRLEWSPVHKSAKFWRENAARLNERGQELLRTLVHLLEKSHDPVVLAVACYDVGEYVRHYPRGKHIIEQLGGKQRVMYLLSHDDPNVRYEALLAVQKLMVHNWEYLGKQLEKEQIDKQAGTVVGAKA

B1: Manduca sexta V-ATPase subunit E (natural protein, Manduca sexta (endogenous in midgut), UniProt P31402 1-226, looked up)
chain: MALSDADVQKQIKHMMAFIEQEANEKAEEIDAKAEEEFNIEKGRLVQQQRLKIMEYYEKKEKQVELQKKIQSSNMLNQARLKVLKVREDHVRNVLDEARKRLAEVPKDIKLYSDLLVTLIVQALFQLVEPTVTLRVRQADKALVESLLGRAQQDYKAKIKKDVVLKIDNENFLPPDTCGGIELIAAKGRIKISNTLESRLELIAQQLLPEIRNALFGRNPNRKFTD
notes: V-type proton ATPase subunit E, Manduca sexta; Three copies in the holoenzyme (stator filaments S1, S2, S3); also called part of the EG stator filaments S1-S3; source: purified from M. sexta midgut, as part of the V-ATPase holoenzyme
B2: Manduca sexta V-ATPase subunit D (natural protein)
chain: not shown
notes: V-type proton ATPase subunit D, Manduca sexta; also called rotor axle; central axle; source: purified from M. sexta midgut, as part of the V-ATPase holoenzyme
B3: Manduca sexta V-ATPase subunit G (natural protein, Manduca sexta (endogenous in midgut), UniProt Q25532 1-117, looked up)
chain: MASQTHGIQQLLAAEKRAAEKVSEARKRKAKRLKQAKEEAQDEVEKYRQERERQFKEFEAKHMGTREGVAAKIDAETRIKIDEMNKMVQTQKEAVIKDVLNLVYDIKPELHINYRVV
notes: V-type proton ATPase subunit G, Manduca sexta; Three copies in the holoenzyme (stator filaments S1, S2, S3); also called part of the EG stator filaments S1-S3; source: purified from M. sexta midgut, as part of the V-ATPase holoenzyme

Experiments:
Assay in all cases: cryo-EM structure; M. sexta V-ATPase holoenzyme purified from tissue, in C12E10; 9.4 Å reconstruction (gold standard FSC 0.143); homology models of the subunits flexibly fitted by MDFF; side chains not resolved
Conditions in all cases: both partners purified
[1] = molecular target: T1, Manduca sexta V-ATPase subunit H
[2] = molecular target: T2, Manduca sexta V-ATPase subunit C (Manduca sexta (endogenous in midgut), UniProt Q9U5N1 1-385)
T2 construct: V-type proton ATPase subunit C, Manduca sexta; source: purified from M. sexta midgut, as part of the V-ATPase holoenzyme
T2 sequence (Q9U5N1 whole entry): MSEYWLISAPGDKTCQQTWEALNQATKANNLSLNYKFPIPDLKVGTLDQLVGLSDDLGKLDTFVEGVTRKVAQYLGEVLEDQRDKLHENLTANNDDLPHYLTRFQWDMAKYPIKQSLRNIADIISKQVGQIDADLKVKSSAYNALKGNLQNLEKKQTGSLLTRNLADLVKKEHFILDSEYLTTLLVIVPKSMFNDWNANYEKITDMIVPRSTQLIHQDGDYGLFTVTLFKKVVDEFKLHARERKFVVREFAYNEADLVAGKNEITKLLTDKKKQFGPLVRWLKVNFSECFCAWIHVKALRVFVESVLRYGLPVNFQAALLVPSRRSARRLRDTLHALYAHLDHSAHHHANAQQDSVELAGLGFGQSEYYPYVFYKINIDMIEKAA

[3] = molecular target: T3, Manduca sexta V-ATPase subunit B (Manduca sexta (endogenous in midgut), UniProt P31401 1-494)
T3 construct: V-type proton ATPase subunit B, Manduca sexta; Three copies in the holoenzyme, (AB)3; source: purified from M. sexta midgut, as part of the V-ATPase holoenzyme
T3 sequence (P31401 whole entry): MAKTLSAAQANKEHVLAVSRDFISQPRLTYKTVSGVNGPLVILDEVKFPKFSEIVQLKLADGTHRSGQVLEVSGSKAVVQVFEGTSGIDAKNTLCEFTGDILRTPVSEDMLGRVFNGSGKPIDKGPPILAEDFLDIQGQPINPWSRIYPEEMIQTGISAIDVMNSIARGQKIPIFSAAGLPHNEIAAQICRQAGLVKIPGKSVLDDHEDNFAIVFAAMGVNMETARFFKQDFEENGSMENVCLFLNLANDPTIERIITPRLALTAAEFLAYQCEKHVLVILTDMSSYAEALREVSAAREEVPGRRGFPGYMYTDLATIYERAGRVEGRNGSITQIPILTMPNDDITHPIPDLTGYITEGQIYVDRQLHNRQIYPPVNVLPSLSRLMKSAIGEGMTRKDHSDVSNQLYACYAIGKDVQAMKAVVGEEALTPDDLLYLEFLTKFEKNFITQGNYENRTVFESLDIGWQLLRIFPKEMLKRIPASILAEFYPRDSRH

[4] = molecular target: T4, Manduca sexta V-ATPase subunit A (Manduca sexta (endogenous in midgut), UniProt P31400 1-617)
T4 construct: V-type proton ATPase catalytic subunit A, Manduca sexta; Three copies in the holoenzyme, (AB)3; source: purified from M. sexta midgut, as part of the V-ATPase holoenzyme
T4 sequence (P31400 whole entry): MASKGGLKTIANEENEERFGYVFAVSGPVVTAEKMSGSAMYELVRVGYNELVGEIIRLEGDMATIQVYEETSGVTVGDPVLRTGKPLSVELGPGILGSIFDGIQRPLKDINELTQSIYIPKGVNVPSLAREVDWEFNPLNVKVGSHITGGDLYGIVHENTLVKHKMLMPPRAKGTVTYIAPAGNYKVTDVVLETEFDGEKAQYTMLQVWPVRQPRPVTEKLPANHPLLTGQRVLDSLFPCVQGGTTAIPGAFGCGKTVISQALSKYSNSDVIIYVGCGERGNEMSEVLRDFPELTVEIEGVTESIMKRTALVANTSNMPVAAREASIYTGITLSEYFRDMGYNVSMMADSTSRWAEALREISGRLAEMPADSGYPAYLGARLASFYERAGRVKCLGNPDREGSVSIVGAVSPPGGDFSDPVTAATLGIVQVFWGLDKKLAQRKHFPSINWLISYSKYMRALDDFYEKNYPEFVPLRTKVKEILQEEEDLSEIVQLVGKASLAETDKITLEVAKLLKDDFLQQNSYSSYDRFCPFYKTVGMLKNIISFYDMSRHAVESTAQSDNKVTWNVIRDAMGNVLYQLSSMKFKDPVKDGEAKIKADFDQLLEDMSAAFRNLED

[5] = molecular target: B1

binding result [1] | binding result [2] | binding result [3] | binding result [4] | binding result [5] | Binder
binds | binds | – | – | – | B1
– | – | binds | binds | – | B2
binds | binds | – | – | binds | B3
